From article PMC8496693

Tests used:
mChe-INPP5E [1] = target: mChe-INPP5E (UniProt Q9NRR6); assay: VIP assay (fluorescence intensity of mChe-INPP5E on GST-anti-GFP Nb beads); details: lysates of HEK293T cells coexpressing both constructs; three independent experiments; parent: 100; read off a plot
mChe-INPP5E [2] = target: mChe-INPP5E (UniProt Q9NRR6); assay: immunoblotting of anti-GFP Nb precipitates (band intensity of mChe-INPP5E); details: lysates of HEK293T cells coexpressing both constructs; three independent experiments; parent: 100; read off a plot

Sequence of mChe-INPP5E (Q9NRR6 whole entry): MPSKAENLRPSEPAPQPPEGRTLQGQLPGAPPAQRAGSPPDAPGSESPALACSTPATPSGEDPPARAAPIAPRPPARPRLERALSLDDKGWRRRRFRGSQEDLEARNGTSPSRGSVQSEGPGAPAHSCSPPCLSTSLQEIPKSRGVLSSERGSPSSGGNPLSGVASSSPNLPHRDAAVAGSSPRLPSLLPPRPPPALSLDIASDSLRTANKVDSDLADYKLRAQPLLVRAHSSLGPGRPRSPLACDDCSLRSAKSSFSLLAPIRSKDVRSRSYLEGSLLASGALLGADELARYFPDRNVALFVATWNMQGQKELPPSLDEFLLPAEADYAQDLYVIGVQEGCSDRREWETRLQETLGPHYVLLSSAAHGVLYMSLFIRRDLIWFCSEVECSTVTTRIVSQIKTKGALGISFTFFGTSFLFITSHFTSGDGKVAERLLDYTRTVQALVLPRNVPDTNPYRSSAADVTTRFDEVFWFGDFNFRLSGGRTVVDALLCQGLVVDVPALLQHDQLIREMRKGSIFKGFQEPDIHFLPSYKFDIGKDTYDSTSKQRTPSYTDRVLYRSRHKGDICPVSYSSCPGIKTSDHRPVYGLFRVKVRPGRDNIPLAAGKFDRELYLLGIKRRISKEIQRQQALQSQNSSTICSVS
Sequence of ARL13B(WT)-EGFP, Q3SXY8 AAEA (RVEP mutated to AAEA) (Q3SXY8 other isoform, or with tags, fused parts or gaps AAEA (RVEP mutated to AAEA)): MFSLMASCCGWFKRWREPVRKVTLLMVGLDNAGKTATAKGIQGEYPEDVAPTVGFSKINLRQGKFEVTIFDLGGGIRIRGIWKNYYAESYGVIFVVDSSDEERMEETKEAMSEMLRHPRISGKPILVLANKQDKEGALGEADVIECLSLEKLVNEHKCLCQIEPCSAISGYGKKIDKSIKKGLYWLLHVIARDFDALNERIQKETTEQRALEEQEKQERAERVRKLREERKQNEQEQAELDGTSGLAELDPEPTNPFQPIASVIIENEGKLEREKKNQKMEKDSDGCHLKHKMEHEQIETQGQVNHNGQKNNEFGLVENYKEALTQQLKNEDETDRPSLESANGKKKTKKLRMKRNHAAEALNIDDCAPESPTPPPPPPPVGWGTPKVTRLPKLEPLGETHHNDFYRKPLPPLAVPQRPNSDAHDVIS

percent of parent (% of ARL13B(WT)-EGFP) (mChe-INPP5E [1]): 100
percent of parent (% of ARL13B(WT)-EGFP) (mChe-INPP5E [2]): 110
Substance: ARL13B(WT)-EGFP, Q3SXY8 AAEA (RVEP mutated to AAEA)
